From patent US20190202883A1 (Takeda / Millennium, published 2019)
Square brackets hold non-standard residues; d marks the D form. Side chains are listed from the residue outwards. Phe(2-F) = N[C@@H](Cc1ccccc1F)C(=O)O; αMeF = C[C@](N)(Cc1ccccc1)C(=O)O; Iva = CC[C@](C)(N)C(=O)O; Oda = not defined here; Aib = CC(C)(N)C(=O)O

B1: H-Tyr-Aib-Glu-Gly-Thr-αMePhe-Thr-Ser-Asp-Lys(-Gly-Gly-Gly-Gly-Oda)-Ser-Lys-Aib-Leu-Asp-Lys-Gln-Arg-Gln-Iva-Glu-Phe-Val-Arg-His-Leu-Leu-Asn-Lys-Aib-Thr-Arg-Gln-A … (peptide)
peptide: H-Y[Aib]EGT[αMeF]TSDK([Gly-Gly-Gly-Gly-Oda])SK[Aib]LDKQRQ[Iva]EFVRHLLNK[Aib]TRQRY-NH2
modifications: reading uncertain; also: printed as H-Tyr-Aib-Glu-Gly-Thr-αMePhe-Thr-Ser-Asp-Lys(-Gly-Gly-Gly-Gly-Oda)-Ser-Lys-Aib-Leu-Asp-Lys-Gln-Arg-Gln-Iva-Glu-Phe-Val-Arg-His-Leu-Leu-Asn-Lys-Aib-Thr-Arg-Gln-Arg-Tyr-NH2
B2: H-Tyr-Aib-Glu-Gly-Thr-αMePhe-Thr-Ser-Asp-Lys(-Gly-Gly-Gly-Gly-Oda)-Aib-Lys-Aib-Leu-Asp-Lys-Gln-Arg-Gln-Iva-Glu-Phe-Val-Arg-His-Leu-Leu-Asn-Lys-Aib-Thr-Arg-Gln-A … (peptide)
peptide: H-Y[Aib]EGT[αMeF]TSDK([Gly-Gly-Gly-Gly-Oda])[Aib]K[Aib]LDKQRQ[Iva]EFVRHLLNK[Aib]TRQRY-NH2
modifications: reading uncertain; also: printed as H-Tyr-Aib-Glu-Gly-Thr-αMePhe-Thr-Ser-Asp-Lys(-Gly-Gly-Gly-Gly-Oda)-Aib-Lys-Aib-Leu-Asp-Lys-Gln-Arg-Gln-Iva-Glu-Phe-Val-Arg-His-Leu-Leu-Asn-Lys-Aib-Thr-Arg-Gln-Arg-Tyr-NH2
B3: H-Tyr-Aib-Glu-Gly-Thr-αMePhe-Thr-Ser-Asp-Lys(-Gly-Gly-Gly-Gly-Oda)-Ala-Ile-Aib-Leu-Asp-Lys-Gln-Arg-Gln-Iva-Glu-Phe-Val-Arg-His-Leu-Leu-Asn-Lys-Aib-Thr-Arg-Gln-A … (peptide)
peptide: H-Y[Aib]EGT[αMeF]TSDK([Gly-Gly-Gly-Gly-Oda])AI[Aib]LDKQRQ[Iva]EFVRHLLNK[Aib]TRQRY-NH2
modifications: reading uncertain; also: printed as H-Tyr-Aib-Glu-Gly-Thr-αMePhe-Thr-Ser-Asp-Lys(-Gly-Gly-Gly-Gly-Oda)-Ala-Ile-Aib-Leu-Asp-Lys-Gln-Arg-Gln-Iva-Glu-Phe-Val-Arg-His-Leu-Leu-Asn-Lys-Aib-Thr-Arg-Gln-Arg-Tyr-NH2
B4: H-Tyr-Aib-Glu-Gly-Thr-αMePhe-Thr-Ser-Asp-Lys(-Gly-Gly-Gly-Gly-Oda)-Ser-Ile-Aib-Leu-Asp-Lys-Gln-Arg-Gln-Iva-Glu-Phe-Val-Arg-His-Leu-Leu-Asn-Lys-Aib-Thr-Arg-Gln-A … (peptide)
peptide: H-Y[Aib]EGT[αMeF]TSDK([Gly-Gly-Gly-Gly-Oda])SI[Aib]LDKQRQ[Iva]EFVRHLLNK[Aib]TRQRY-NH2
modifications: reading uncertain; also: printed as H-Tyr-Aib-Glu-Gly-Thr-αMePhe-Thr-Ser-Asp-Lys(-Gly-Gly-Gly-Gly-Oda)-Ser-Ile-Aib-Leu-Asp-Lys-Gln-Arg-Gln-Iva-Glu-Phe-Val-Arg-His-Leu-Leu-Asn-Lys-Aib-Thr-Arg-Gln-Arg-Tyr-NH2
B5: Me-Tyr-Aib-Glu-Gly-Thr-αMePhe-Thr-Ser-Asp-Lys(-Gly-Gly-Gly-Gly-Oda)-Ser-Ile-Aib-Leu-Asp-Lys-Gln-Arg-Gln-Iva-Glu-Phe-Val-Arg-His-Leu-Leu-Asn-Lys-Aib-Thr-Arg-Gln- … (peptide)
peptide: Me-Y[Aib]EGT[αMeF]TSDK([Gly-Gly-Gly-Gly-Oda])SI[Aib]LDKQRQ[Iva]EFVRHLLNK[Aib]TRQRY-NH2
modifications: reading uncertain; also: printed as Me-Tyr-Aib-Glu-Gly-Thr-αMePhe-Thr-Ser-Asp-Lys(-Gly-Gly-Gly-Gly-Oda)-Ser-Ile-Aib-Leu-Asp-Lys-Gln-Arg-Gln-Iva-Glu-Phe-Val-Arg-His-Leu-Leu-Asn-Lys-Aib-Thr-Arg-Gln-Arg-Tyr-NH2
B6: Me-Tyr-Aib-Glu-Gly-Thr-αMePhe-Thr-Ser-Asp-Lys(-Gly-Gly-Gly-Gly-Oda)-Aib-Ile-Aib-Leu-Asp-Lys-Gln-Arg-Gln-Iva-Glu-Phe-Val-Arg-His-Leu-Leu-Asn-Lys-Aib-Thr-Arg-Gln- … (peptide)
peptide: Me-Y[Aib]EGT[αMeF]TSDK([Gly-Gly-Gly-Gly-Oda])[Aib]I[Aib]LDKQRQ[Iva]EFVRHLLNK[Aib]TRQRY-NH2
modifications: reading uncertain; also: printed as Me-Tyr-Aib-Glu-Gly-Thr-αMePhe-Thr-Ser-Asp-Lys(-Gly-Gly-Gly-Gly-Oda)-Aib-Ile-Aib-Leu-Asp-Lys-Gln-Arg-Gln-Iva-Glu-Phe-Val-Arg-His-Leu-Leu-Asn-Lys-Aib-Thr-Arg-Gln-Arg-Tyr-NH2
B7: Me-Tyr-Aib-Glu-Gly-Thr-αMePhe-Thr-Ser-Asp-Lys(-Gly-Gly-Gly-Gly-Oda)-Ala-Ile-Aib-Leu-Asp-Lys-Gln-Arg-Gln-Iva-Glu-Phe-Val-Arg-His-Leu-Leu-Asn-Lys-Aib-Thr-Arg-Gln- … (peptide)
peptide: Me-Y[Aib]EGT[αMeF]TSDK([Gly-Gly-Gly-Gly-Oda])AI[Aib]LDKQRQ[Iva]EFVRHLLNK[Aib]TRQRY-NH2
modifications: reading uncertain; also: printed as Me-Tyr-Aib-Glu-Gly-Thr-αMePhe-Thr-Ser-Asp-Lys(-Gly-Gly-Gly-Gly-Oda)-Ala-Ile-Aib-Leu-Asp-Lys-Gln-Arg-Gln-Iva-Glu-Phe-Val-Arg-His-Leu-Leu-Asn-Lys-Aib-Thr-Arg-Gln-Arg-Tyr-NH2
B8: H-Tyr-Aib-Glu-Gly-Thr-αMePhe-Thr-Ser-Asp-Lys(-Gly-Gly-Gly-Gly-Oda)-Aib-Ile-Aib-Leu-Asp-Lys-Gln-Ala-Gln-Iva-Glu-Phe-Val-Arg-His-Leu-Leu-Asn-Lys-Aib-Thr-Arg-Gln-A … (peptide)
peptide: H-Y[Aib]EGT[αMeF]TSDK([Gly-Gly-Gly-Gly-Oda])[Aib]I[Aib]LDKQAQ[Iva]EFVRHLLNK[Aib]TRQR[Phe(2-F)]-NH2
modifications: reading uncertain; also: printed as H-Tyr-Aib-Glu-Gly-Thr-αMePhe-Thr-Ser-Asp-Lys(-Gly-Gly-Gly-Gly-Oda)-Aib-Ile-Aib-Leu-Asp-Lys-Gln-Ala-Gln-Iva-Glu-Phe-Val-Arg-His-Leu-Leu-Asn-Lys-Aib-Thr-Arg-Gln-Arg-Phe(2-F)-NH2

Tests used:
Experiment in all cases: cell-based or functional assay
[1] = molecular target: human GLP-1R (human, UniProt P43220 24-463)
[2] = molecular target: T1, human GIPR (human, UniProt P48546 22-466)
T1 sequence (looked up): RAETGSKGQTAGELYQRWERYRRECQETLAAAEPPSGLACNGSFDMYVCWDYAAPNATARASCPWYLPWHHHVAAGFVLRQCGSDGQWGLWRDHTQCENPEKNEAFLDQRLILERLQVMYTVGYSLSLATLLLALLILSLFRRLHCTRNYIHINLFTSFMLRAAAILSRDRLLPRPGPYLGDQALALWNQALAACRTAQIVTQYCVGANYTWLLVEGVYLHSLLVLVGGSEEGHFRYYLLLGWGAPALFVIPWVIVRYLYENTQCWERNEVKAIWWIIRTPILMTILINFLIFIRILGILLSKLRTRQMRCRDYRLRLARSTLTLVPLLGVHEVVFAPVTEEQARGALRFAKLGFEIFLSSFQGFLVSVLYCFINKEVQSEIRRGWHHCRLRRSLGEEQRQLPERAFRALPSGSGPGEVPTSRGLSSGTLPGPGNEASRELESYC

[3] = molecular target: T2, human NPY2R (human, UniProt P49146 1-381)
T2 sequence (looked up): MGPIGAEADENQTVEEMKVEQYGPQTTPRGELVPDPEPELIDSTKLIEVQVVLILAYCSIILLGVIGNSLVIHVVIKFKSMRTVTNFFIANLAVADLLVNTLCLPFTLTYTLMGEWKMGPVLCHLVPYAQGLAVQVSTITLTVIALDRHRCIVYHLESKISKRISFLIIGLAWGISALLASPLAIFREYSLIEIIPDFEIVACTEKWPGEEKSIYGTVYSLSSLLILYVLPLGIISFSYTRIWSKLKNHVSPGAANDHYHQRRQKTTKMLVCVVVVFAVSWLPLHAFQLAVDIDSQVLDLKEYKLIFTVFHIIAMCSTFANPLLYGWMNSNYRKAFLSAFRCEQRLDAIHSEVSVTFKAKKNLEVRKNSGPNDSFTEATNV

Row | Binder | Agonist activity (EC50), Cre-luc reporter assay [1] [pM] | Agonist activity (EC50), Cre-luc reporter assay [2] [pM] | Agonist activity (EC50), Cre-luc reporter assay [3] [pM]
1 | H-Y[Aib]EGT[αMeF]TSDK([Gly-Gly-Gly-Gly-Pal])AI[Aib]LDKQRQ[Iva]EFVRHLLNK[Aib]TRQRY-NH2 | 79 | 66 | 99
2 | B1 | 1300 | 610 | 1300
3 | H-Y[Aib]EGT[αMeF]TSDK([Gly-Gly-Gly-Gly-Pal])SK[Aib]LDKQRQ[Iva]EFVRHLLNK[Aib]TRQRY-NH2 | 130 | 91 | 59
4 | B2 | 940 | 1000 | 1500
5 | B3 | 1200 | 260 | 3000
6 | Me-Y[Aib]EGT[αMeF]TSDK([Gly-Gly-Gly-Gly-Pal])AI[Aib]LDKQRQ[Iva]EFVRHLLNK[Aib]TRQRY-NH2 | 100 | 74 | 100
7 | B4 | 470 | 110 | 2600
8 | B5 | 1900 | 91 | 2400
9 | H-Y[Aib]EGT[αMeF]TSDK([Gly-Gly-Gly-Gly-Pal])[Aib]K[Aib]LDKQRQ[Iva]EFVRHLLNK[Aib]TRQRY-NH2 | 60 | 44 | 64
10 | H-Y[Aib]EGT[αMeF]TSDK([Gly-Gly-Gly-Gly-Pal])SI[Aib]LDKQRQ[Iva]EFVRHLLNK[Aib]TRQRY-NH2 | 50 | 56 | 48
11 | Me-Y[Aib]EGT[αMeF]TSDK([Gly-Gly-Gly-Gly-Pal])[Aib]K[Aib]LDKQRQ[Iva]EFVRHLLNK[Aib]TRQRY-NH2 | 69 | 51 | 68
12 | B6 | 1400 | 250 | 2000
13 | Me-Y[Aib]EGT[αMeF]TSDK([Gly-Gly-Gly-Gly-Pal])SI[Aib]LDKQRQ[Iva]EFVRHLLNK[Aib]TRQRY-NH2 | 49 | 50 | 81
14 | B7 | 4400 | 170 | 3200
15 | H-Y[Aib]EGT[αMeF]TSDK([Gly-Gly-Gly-Gly-Pal])[Aib]I[Aib]LDKQRQ[Iva]EFVRHLLNK[Aib]TRQR[Phe(2-F)]-NH2 | 380 | 350 | 220
16 | B8 | 110 | 71 | 2100
